From patent US20230117205A1, “B7-H4 ANTIBODY-DRUG CONJUGATES FOR THE TREATMENT OF CANCER” (SEAGEN INC., priority 2021, published 2023)
One block for each molecule: values may come before it.

Columns and labels:
[1] = molecular target: hFcγRIIa H131 (biotinylated avi-tagged, fused with monomeric Fc) (human) (UniProt P12318); assay: BLI (Octet HTX), biotinylated hFcγRIIa H131 on streptavidin biosensors, ADC in solution, 30 C, 1:1 fit
[2] = molecular target: hFcγRIIIa F158 (biotinylated avi-tagged, fused with monomeric Fc) (human) (UniProt P08637); assay: BLI (Octet HTX), biotinylated hFcγRIIIa F158 on streptavidin biosensors, ADC in solution, 30 C, 1:1 fit
human B7-H4 on cells [3] = molecular target: T1, human B7-H4 on cells (human, UniProt Q7Z7D3 25-282); assay: IHC on cell pellets, MDA-MB-468 cells that express B7-H4 endogenously
T1 sequence: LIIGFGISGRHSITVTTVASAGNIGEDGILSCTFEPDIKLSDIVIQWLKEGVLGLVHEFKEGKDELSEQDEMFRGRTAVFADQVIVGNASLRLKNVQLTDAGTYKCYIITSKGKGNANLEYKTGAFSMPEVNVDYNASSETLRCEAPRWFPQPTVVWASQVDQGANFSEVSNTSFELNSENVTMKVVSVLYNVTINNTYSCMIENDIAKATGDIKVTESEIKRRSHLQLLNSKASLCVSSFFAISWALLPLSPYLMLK

human B7-H4 on cells [4] = molecular target: T1, human B7-H4 on cells; assay: IHC on cell pellets, SKBR3 cells that express B7-H4 endogenously
human B7-H4 on cells [5] = molecular target: T1, human B7-H4 on cells; assay: IHC on cell pellets, HCC1569 cells that express B7-H4 endogenously
human B7-H4 on cells [6] = molecular target: T1, human B7-H4 on cells; assay: IHC on cell pellets, HCC1954 cells that express B7-H4 endogenously
human B7-H4 on cells [7] = molecular target: T1, human B7-H4 on cells; assay: IHC on cell pellets, ZR-75-30 cells that express B7-H4 endogenously
human B7-H4 on cells [8] = molecular target: T1, human B7-H4 on cells; assay: cell-based or functional assay
[9] = molecular target: hFcγRIIa R131 (biotinylated avi-tagged, fused with monomeric Fc) (human) (UniProt P12318); assay: BLI (Octet HTX), biotinylated hFcγRIIa R131 on streptavidin biosensors, antibody in solution, 30 C, 1:1 fit
[10] = molecular target: hscFcRN (biotinylated avi-tagged, fused with monomeric Fc) (human) (UniProt P55899); assay: BLI (Octet HTX), biotinylated hscFcRN on streptavidin biosensors, antibody in solution, pH 6.0, 30 C, 1:1 fit
[11] = molecular target: hFcγRIIIa V158 (biotinylated avi-tagged, fused with monomeric Fc) (human) (UniProt P08637); assay: BLI (Octet HTX), biotinylated hFcγRIIIa V158 on streptavidin biosensors, antibody in solution, 30 C, 1:1 fit
[12] = molecular target: hFcγRIIb (biotinylated avi-tagged, fused with monomeric Fc) (human) (UniProt P31994); assay: BLI (Octet HTX), biotinylated hFcγRIIb on streptavidin biosensors, antibody in solution, 30 C, 1:1 fit
[13] = molecular target: hFcγRI (biotinylated avi-tagged, fused with monomeric Fc) (human) (UniProt P12314); assay: BLI (Octet HTX), biotinylated hFcγRI on streptavidin biosensors, antibody in solution, 30 C, 1:1 fit
[14] = molecular target: hFcγRIIIa F158 (biotinylated avi-tagged, fused with monomeric Fc) (human) (UniProt P08637); assay: BLI (Octet HTX), biotinylated hFcγRIIIa F158 on streptavidin biosensors, antibody in solution, 30 C, 1:1 fit

Chain of hFcγRI (biotinylated avi-tagged, fused with monomeric Fc) (human) (P12314 16-292): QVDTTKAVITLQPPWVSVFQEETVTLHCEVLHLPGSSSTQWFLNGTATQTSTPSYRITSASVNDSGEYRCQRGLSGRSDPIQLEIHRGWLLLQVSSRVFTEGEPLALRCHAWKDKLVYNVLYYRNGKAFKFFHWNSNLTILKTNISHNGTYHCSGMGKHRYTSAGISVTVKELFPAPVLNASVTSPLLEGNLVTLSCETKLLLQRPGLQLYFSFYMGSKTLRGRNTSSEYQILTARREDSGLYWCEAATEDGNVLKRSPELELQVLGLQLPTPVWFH
Chain of hFcγRIIIa V158 (biotinylated avi-tagged, fused with monomeric Fc) (human) (P08637 17-208 F176V): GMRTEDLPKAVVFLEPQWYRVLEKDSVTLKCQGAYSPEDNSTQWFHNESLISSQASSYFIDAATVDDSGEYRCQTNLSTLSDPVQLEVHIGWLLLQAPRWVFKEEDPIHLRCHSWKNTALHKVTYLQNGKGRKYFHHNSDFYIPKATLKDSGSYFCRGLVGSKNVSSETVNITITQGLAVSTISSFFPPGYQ
Chain of hFcγRIIa R131 (biotinylated avi-tagged, fused with monomeric Fc) (human) (P12318 34-217 H167R): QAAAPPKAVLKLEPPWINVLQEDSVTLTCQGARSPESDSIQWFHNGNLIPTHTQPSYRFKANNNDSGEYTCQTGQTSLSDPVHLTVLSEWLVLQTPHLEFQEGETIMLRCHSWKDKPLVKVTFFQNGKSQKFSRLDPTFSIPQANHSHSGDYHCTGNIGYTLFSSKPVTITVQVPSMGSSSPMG
Chain of hFcγRIIb (biotinylated avi-tagged, fused with monomeric Fc) (human) (P31994 43-217): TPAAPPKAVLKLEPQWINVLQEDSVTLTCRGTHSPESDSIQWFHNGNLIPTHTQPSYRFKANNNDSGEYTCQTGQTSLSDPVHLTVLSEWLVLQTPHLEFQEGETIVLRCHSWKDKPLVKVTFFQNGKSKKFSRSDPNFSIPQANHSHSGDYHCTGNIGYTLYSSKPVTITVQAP

Kd [1]: 4.2 µM | Kd [2]: 10.4 µM
Molecule: SGN-B7H4V (antibody)

intensity score (human B7-H4 on cells [3]): 3 | intensity score (human B7-H4 on cells [4]): 3 | intensity score (human B7-H4 on cells [5]): 3 | intensity score (human B7-H4 on cells [6]): 2 | intensity score (human B7-H4 on cells [7]): 1
Molecule: anti-B7-H4 antibody clone D1M8I

Molecule: non-binding control ADC (antibody)
x50 (ng/mL), in vitro cytotoxicity, MDA-MB-468, 96 h, 3D spheroid, CellTiter-Glo (human B7-H4 on cells [8]): > 1000 ng/mL | x50 (ng/mL), in vitro cytotoxicity, MX1, 96 h, 3D spheroid, CellTiter-Glo (human B7-H4 on cells [8]): > 1000 ng/mL | x50 (ng/mL), in vitro cytotoxicity, SKBR3, 96 h, 3D spheroid, CellTiter-Glo (human B7-H4 on cells [8]): > 1000 ng/mL

Kd [9]: 3.1 µM | Kd [10]: 0.0103 µM | Kd [11]: 0.78 µM | Kd [12]: 29 µM | Kd [13]: 0.0018 µM | Kd [14]: 4.8 µM
Molecule: positive control mAb (the anti-CD70 mAb h1F6) (antibody)

apparent half-life of the increase of fluorescent signal (internalization, quenched fluorophore assay on SKBR3 and MX-1 cells) (human B7-H4 on cells [8]): 3.2 to 4.9 h
B1: B7H41001 mAb quenched fluorophore conjugate (antibody, human IgG1, kappa, V domains shown)
VH: QLQLQESGPGLVKPSETLSLTCTVSGGSIKSGSYYWGWIRQPPGKGLEWIGNIYYSGSTYYNPSLRSRVTISVDTSKNQFSLKLSSVTAADTAVYYCAREGSYPNQFDPWGQGTLVTVSS
VL: EIVMTQSPATLSVSPGERATLSCRASQSVSSNLAWYQQKPGQAPRLLIYGASTRATGIPARFSGSGSGTEFTLTISSLQSEDFAVYYCQQYHSFPFTFGGGTKVEIKR
modifications: Cy5 dye and quencher pair attached by the same vc linker as in SGN-B7H4V; sites not stated
